According to US20230146665A1 (Xencor, published 2023):

Target: T1, IL18BP (human, UniProt O95998 31-194)
T1 construct: also called ILBP antigen
T1 sequence (looked up): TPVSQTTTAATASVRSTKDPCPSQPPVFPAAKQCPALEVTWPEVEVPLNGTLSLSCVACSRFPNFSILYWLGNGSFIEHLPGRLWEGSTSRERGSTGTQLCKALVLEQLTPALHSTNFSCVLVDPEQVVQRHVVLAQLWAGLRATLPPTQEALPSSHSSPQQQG
Assay: Octet (BLI), IL18BP as ligand on the biosensor, IL18 fusion as analyte
Source text: Binding of variant IL18 to IL18 receptors or IL18BP were investigated using Octet, a BioLayer Interferometry (BLI)-based method. Experimental steps for Octet generally include the following: Immobilization (capture of ligand to a biosensor); Association (dipping of ligand-coated biosensors into wells containing serial dilutions of the analyte); and Dissociation (returning of biosensors to well containing buffer) in order to determine the affinity of the test articles. A reference well containing buffer alone was also included in the method for background correction during data processing. In particular, ligands used were IL18R1, IL18R1xIL18RAP heterodimer, or IL18BP, and the analytes were IL18 fusions. Illustrative sequences for these antigens are depicted in FIGS. 1-3 (respectively for human, mouse, and cynomolgus monkey).

B1: XENP40253 (Fc fusion)
chain: YFGKLESKLSVIRNLNDQVLFIDQGNRPLFEDMTDSDSRDNAPRTIFIISMYDDSQPRGMAVTISVKSEKISTLSSENKIISFKEMNPPDNIKDTKSDIIFFQRSVPGHDNKMQFESSSYEGYFLASEKERDLFKLILKKEDELGDRSIMFTVQNEDEPKSSDKTHTCPPCPAPPVAGPSVFLFPPKPKDTLMISRTPEVTCVVVDVKHEDPEVKFNWYVDGVEVHNAKTKPREEEYNSTYRVVSVLTVLHQDWLNGKEYKCKVSNKALPAPIEKTISKAKGQPREPQVYTLPPSREEMTKNQVSLTCDVSGFYPSDIAVEWESDGQPENNYKTTPPVLDSDGSFFLYSKLTVDKSRWEQGDVFSCSVMHEALHNHYTQKSLSLSPG
heavy: QVQLQESGPGLVRPSQTLSLTCTVSGFSLTGYGVNWVRQPPGRGLEWIGMIWGDGNTDYNSALKSRVTMLKDTSKNQFSLRLSSVTAADTAVYYCARERDYRLDYWGQGSLVTVSSASTKGPSVFPLAPSSKSTSGGTAALGCLVKDYFPEPVTVSWNSGALTSGVHTFPAVLQSSGLYSLSSVVTVPSSSLGTQTYICNVNHKPSNTKVDKKVEPKSCDKTHTCPPCPAPPVAGPSVFLFPPKPKDTLMISRTPEVTCVVVDVKHEDPEVKFNWYVDGVEVHNAKTKPREEQYNSTYRVVSVLTVLHQDWLNGKEYKCKVSNKALPAPIEKTISKAKGQPREPQVYTLPPSREQMTKNQVKLTCLVKGFYPSDIAVEWESNGQPENNYKTTPPVLDSDGSFFLYSKLTVDKSRWQQGNVFSCSVMHEALHNRFTQKSLSLSPG
light: DIQMTQSPSSLSASVGDRVTITCRASGNIHNYLAWYQQKPGKAPKLLIYYTTTLADGVPSRFSGSGSGTDYTFTISSLQPEDIATYYCQHFWSTPRTFGQGTKVEIKRTVAAPSVFIFPPSDEQLKSGTASVVCLLNNFYPREAKVQWKVDNALQSGNSQESVTEQDSKDSTYSLSSTLTLSKADYEKHKVYACEVTHQGLSSPVTKSFNRGEC
notes: also called K53D single substitution variant; K53D
  binding result: no binding
